Key:
[1] = target: HT-WG (hexahistidine-tagged WG fragment of N-WASP, amino acids 1-277) (bovine, UniProt Q95107 1-277); assay: pull-down
[2] = target: HT-WGP (hexahistidine-tagged WGP fragment of N-WASP, amino acids 1-396) (bovine, UniProt Q95107 1-396); assay: pull-down
HT-WGP (hexahistidine-tagged WGP fragment of N-WASP, amino acids 1-396), sequence (Q95107 1-396): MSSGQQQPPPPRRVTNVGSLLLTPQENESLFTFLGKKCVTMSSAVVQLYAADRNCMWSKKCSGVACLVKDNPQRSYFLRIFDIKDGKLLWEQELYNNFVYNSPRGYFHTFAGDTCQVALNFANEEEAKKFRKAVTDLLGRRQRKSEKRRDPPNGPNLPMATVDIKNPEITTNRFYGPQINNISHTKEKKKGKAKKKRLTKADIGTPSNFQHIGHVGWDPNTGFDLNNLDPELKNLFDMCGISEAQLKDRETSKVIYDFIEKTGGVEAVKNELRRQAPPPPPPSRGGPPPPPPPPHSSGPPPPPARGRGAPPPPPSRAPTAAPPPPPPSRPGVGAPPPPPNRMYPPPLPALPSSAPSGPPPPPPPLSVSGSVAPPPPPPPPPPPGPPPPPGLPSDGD

HT-WG (hexahistidine-tagged WG fragment of N-WASP, amino acids 1-277), sequence (Q95107 1-277): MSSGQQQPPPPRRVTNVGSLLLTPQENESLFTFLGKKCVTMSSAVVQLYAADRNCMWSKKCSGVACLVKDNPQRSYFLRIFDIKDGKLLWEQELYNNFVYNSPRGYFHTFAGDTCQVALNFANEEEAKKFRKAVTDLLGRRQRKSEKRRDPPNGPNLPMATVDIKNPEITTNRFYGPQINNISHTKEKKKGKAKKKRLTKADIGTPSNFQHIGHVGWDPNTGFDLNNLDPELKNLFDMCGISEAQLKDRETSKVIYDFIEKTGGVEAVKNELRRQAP

B1: GST-VCA (GST fusion of the COOH-terminal VCA segment of bovine N-WASP, amino acids 392-505) (domain or fragment, UniProt Q95107 392-505, looked up)
chain: PSDGDHQVPTPAGSKAALLDQIREGAQLKKVEQNSRPVSCSGRDALLDQIRQGIQLKSVTDAPESTPPAPAPTSGIVGALMEVMQKRSKAIHSSDEDEDEDDDEDFEDDDEWED
B1: binds [1]; binds [2].
